Experimental findings from article PMC4967961 are described below.

This data set addresses HuR full-length (FL-HuR, rHuR) (UniProt Q15717 1-326). As to the kind of experiment: EMSA; EMSA: 20 mM Tris-HCl pH 7.8, 150 mM KCl, 2 mM MgCl2, 0.1% Triton X-100, 0.5 mM DTT, heparin 5 mg/ml, BSA 1 mg/ml, 10% glycerol, on ice 15 min; 6% native PAGE, 0. In general terms: In EMSA bound probe runs differently from free probe, usually more slowly.

HuR full-length (FL-HuR, rHuR), sequence (Q15717 whole entry): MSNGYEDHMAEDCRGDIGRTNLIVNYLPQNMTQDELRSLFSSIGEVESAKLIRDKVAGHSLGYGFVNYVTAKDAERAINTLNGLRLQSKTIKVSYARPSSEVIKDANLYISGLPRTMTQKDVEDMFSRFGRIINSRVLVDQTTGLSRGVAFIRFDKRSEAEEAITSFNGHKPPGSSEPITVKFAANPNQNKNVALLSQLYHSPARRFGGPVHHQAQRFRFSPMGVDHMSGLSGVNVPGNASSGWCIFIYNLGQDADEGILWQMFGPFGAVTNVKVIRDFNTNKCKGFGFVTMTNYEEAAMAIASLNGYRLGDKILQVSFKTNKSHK

B1: TNF-alpha 3'UTR ARE RNA (ssRNA)
RNA: AUUAUUUAUUAUUUAUUUAUUAUUUAUUUAUUUA
For the molecule B1, the binding result is “binds”.

B2: miR-122 (5p) (ssRNA)
RNA: UGGAGUGUGACAAUGGUGUUUG
Take B2: the affinity, expressed as Kd, was 50 nM.
